According to US20220118063A1:

Biological target: FVIII (B region deleted), purchased from American Pharma Wholesale (human) (UniProt P00451)
Assay: cell-based or functional assay

UniProt P00451, sequence (P00451 other isoform, or with tags, fused parts or gaps, chain 1 of 2): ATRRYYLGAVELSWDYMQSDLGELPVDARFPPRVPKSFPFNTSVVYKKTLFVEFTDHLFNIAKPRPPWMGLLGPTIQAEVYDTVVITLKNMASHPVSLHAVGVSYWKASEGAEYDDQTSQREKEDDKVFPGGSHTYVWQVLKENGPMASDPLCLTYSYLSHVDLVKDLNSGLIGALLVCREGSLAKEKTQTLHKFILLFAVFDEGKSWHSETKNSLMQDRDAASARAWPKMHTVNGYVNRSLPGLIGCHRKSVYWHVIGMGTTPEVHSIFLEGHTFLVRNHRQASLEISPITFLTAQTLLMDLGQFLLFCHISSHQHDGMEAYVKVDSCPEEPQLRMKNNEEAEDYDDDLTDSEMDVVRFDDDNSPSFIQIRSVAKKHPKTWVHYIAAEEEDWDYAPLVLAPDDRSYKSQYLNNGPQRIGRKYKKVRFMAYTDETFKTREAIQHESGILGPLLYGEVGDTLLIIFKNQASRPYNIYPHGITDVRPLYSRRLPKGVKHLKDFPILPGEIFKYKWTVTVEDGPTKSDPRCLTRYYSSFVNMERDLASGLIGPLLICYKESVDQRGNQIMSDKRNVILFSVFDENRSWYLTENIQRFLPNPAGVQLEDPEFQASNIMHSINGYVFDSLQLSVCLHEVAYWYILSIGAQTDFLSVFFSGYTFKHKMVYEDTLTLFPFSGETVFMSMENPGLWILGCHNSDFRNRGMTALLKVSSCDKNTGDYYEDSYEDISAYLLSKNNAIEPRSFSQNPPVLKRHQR
UniProt P00451, sequence (P00451 1668-2351, stated change not applied, chain 2 of 2): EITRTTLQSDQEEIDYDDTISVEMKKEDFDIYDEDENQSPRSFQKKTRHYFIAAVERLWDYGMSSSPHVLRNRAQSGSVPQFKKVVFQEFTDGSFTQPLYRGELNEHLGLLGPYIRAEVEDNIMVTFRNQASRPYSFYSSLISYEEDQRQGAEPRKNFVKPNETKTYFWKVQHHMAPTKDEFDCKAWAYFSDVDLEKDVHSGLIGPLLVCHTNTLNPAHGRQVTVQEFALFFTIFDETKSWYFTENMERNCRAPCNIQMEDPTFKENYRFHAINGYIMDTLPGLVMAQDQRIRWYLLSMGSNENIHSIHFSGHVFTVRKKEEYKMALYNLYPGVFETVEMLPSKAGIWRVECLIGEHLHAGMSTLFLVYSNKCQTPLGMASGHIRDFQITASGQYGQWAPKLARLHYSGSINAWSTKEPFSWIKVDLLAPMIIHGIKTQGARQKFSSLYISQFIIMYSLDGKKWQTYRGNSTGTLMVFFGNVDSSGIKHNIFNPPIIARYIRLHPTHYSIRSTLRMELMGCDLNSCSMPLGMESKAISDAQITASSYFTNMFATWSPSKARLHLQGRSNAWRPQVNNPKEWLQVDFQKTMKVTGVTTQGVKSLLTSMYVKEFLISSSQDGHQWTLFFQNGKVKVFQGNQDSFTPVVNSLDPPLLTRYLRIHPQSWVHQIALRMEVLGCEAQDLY

A fold decrease in specific activity of CM211 in the APTT against the Coatest assay of 6.5 fold was found for “CM110 (expressed from plasmid pCM110RMHM: D′D3 region of human von Willebrand Factor with cys1099 and cys1142 changed to alanine, 56 amino acid glycine serine rich linker, full length human albumin, no His tag) (from UniProt P04275 764-1247)” in this work.
